Measured values from publication PMC10984559.

Molecular target: T1, Mtr4 ΔSLYL (Saccharomyces cerevisiae, UniProt P47047 1-1069, del1070-1073)
T1 sequence: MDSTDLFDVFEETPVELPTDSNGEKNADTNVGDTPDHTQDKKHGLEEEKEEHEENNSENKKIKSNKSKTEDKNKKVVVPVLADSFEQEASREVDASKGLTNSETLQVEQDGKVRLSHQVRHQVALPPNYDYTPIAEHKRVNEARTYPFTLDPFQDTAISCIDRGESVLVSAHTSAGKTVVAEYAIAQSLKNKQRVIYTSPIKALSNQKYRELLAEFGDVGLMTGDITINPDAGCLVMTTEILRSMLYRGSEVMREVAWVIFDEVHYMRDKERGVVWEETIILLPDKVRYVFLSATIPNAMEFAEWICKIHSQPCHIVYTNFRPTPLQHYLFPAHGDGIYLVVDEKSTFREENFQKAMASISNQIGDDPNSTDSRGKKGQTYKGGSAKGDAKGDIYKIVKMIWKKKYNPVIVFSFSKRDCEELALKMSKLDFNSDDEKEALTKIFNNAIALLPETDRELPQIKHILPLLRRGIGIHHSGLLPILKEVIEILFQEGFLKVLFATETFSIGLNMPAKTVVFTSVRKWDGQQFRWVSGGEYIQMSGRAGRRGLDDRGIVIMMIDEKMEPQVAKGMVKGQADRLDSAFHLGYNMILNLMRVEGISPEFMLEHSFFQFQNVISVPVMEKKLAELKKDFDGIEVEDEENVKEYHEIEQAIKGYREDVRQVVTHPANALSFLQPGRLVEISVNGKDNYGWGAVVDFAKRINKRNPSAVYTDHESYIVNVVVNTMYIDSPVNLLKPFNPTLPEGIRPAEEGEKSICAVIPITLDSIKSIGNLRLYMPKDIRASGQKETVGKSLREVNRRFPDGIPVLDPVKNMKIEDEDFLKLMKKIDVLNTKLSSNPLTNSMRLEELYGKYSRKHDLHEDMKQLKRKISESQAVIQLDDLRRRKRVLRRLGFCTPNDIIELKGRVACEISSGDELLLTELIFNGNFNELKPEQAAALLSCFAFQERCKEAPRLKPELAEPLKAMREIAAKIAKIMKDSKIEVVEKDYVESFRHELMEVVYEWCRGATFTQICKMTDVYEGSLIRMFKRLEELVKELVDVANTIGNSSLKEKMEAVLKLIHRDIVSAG
Experiment: EMSA

B1: ds16UA5 (R16/R22A) (dsRNA)
RNA 1: AGCACCGUAAAGACGC
RNA 2: GCGUCUUUACGGUGCUUAAAAA
**Q.** How did the binding signal turn out when B1 was run?
**A.** > 5 fold Kd vs WT
